Data from patent publication US20070110760A1.

Molecular target: Syk kinase (endogenous, in cell lysates) (not stated (endogenous in murine NMuMG cells and in Bal-17 B cells)) (UniProt P48025)
Assay: co-immunoprecipitation in the presence of tyrosine phosphatase inhibitors, NMuMG lysates, three independent experiments

Chain of Syk kinase (endogenous, in cell lysates) (not stated (endogenous in murine NMuMG cells and in Bal-17 B cells)) (P48025 whole entry): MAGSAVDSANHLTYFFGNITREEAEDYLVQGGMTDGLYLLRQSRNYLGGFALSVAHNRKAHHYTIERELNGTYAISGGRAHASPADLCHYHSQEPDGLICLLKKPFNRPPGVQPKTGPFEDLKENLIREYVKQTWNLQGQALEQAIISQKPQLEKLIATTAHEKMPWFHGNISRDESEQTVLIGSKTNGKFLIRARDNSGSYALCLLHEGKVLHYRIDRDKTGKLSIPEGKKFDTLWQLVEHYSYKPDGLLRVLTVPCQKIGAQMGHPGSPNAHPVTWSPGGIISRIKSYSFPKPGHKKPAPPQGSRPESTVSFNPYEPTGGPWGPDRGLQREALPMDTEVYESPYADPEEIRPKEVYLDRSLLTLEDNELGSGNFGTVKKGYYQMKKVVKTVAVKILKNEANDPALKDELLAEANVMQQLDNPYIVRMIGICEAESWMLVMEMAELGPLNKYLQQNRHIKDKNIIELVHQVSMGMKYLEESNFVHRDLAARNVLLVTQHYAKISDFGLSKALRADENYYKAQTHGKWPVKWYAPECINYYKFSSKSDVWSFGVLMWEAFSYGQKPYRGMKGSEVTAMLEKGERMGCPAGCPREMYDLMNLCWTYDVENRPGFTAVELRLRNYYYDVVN

“MMTV Env surface unit (SU or gp52), unmutated envelope (from UniProt P03374 99-454)” showed a percent of SU co-immunoprecipitated with Syk of less than 34%.
